{"source": "patent US20250382580A1", "about": "“COMPOSITIONS AND METHODS FOR ACCELERATED PRODUCTION OF THYMIC CELLS FROM PLURIPOTENT STEM CELLS” (The Regents of the University of Colorado, a body Corporate, priority 2022, published 2025)", "key": {"[1]": {"system": "iPSCs", "test": "Influence of TGF-β signaling on TEP induction from iPSCs, flow cytometry and qPCR on day 14 (Example 2)", "assay_type": "cell-based", "details": "TGF-β signaling modulation during AFE stage (days 5-6) and VPE stage (days 7-8); flow cytometry and qPCR day 14", "experimental": "In another exemplary method, the influence of TGF-β signaling during generation of TEPs in two different stages was assessed. FIG. 4A is a schematic illustrating the timelines and culture conditions for the nine protocols performed in the present exemplary method. FIG. 2 provides a chart of agents, modulators, additives, and base mediums used in this and other exemplary methods herein.\nFor all nine exemplary experimental conditions, on Day 1, iPSCs were plated for differentiation in mTeSR+ supplemented with ROCKi according to the method disclosed above. […]\nThe 9 protocols testing the effect of TGF-β inhibition (Ly), omission, or activation (T) on TEP induction were tested and analyzed by flow cytometry and qPCR on day 14. FIG. 4B illustrates flow plot quantification of CD205^+EPCAM^+ cells from each differentiation protocol and FIGS. 4C-4E illustrate a qPCR analysis of HOXA3, KRT8, and FOXN1 gene expression in the cells from each differentiation protocol.\nDuring the AFE stage (days 5-6) the influence of: 1) inhibition of TGF-β signaling (Ly—conditions […], 2, and 3); 2) no modulation of TGF-β signaling (conditions 4, 5, and 6); and 3) activation of TGF-β signaling (T—conditions 7, 8, and 9) was assessed. […]"}, "[2]": {"system": "iPSC-derived TEP", "test": "RANKL, CD40L and NOTCH agonists added in stage 4 or 5 of differentiation, flow cytometry and qPCR (Example 5)", "assay_type": "cell-based", "source_text": "FIG. 7 illustrates an exemplary experimental set-up in accordance with certain embodiments of the present disclosure. This experimental set-up for production of add RANKL, CD40L, and NOTCH agonists in different combinations in stage 4 or 5 of differentiation of the progenitor cells.\nFIGS. 8A-8B illustrate additional stimulants used to enhance thymic cell production having improved marker representation, 8A and […] illustrate percent representative marker outcome under the varying conditions in accordance with certain embodiments of the present disclosure.\nFIGS. 9A-9B illustrate exemplary results from qPCR detection of representative markers FOXN1 and MHC-II (e.g., HLA-DR) protein expression corroborated by gene expression under control and experimental conditions in accordance with certain embodiments of the present disclosure."}}}
{"molecule": "T: TGF-β activation (T), 1 ng/mL TGF-β", "values": [{"measurement": "expression of TEP/TEC markers CD205 and EPCAM, VPE marker HOXA3, TEP markers KRT8 and FOXN1", "setting": "[1]", "value": "no influence"}]}
{"molecule": "RANKL: RANK pathway activator, ETP-derived signal (protein, UniProt O14788 140-317, looked up) Tumor necrosis factor ligand …: IRAEKAMVDGSWLDLAKRSKLEAQPFAHLTINATDIPSGSHKVSLSSWYHDRGWAKISNMTFSNGKLIVNQDGFYYLYANICFRHHETSGDLATEYLQLMVYVTKTSIKIPSSHTLMKGGSTKYWSGNSEFHFYSINVGGFFKLRSGEEISIEVSNPSLLDPDQDATYFGAFKVRDID", "values": [{"measurement": "production of FOXN1+EPCAM+ cells", "setting": "[2]", "value": "did not enhance production"}]}
{"molecule": "CD40L: CD40 pathway activator, ETP-derived signal (protein, UniProt P29965 113-261, looked up) CD40 ligand, soluble form: MQKGDQNPQIAAHVISEASSKTTSVLQWAEKGYYTMSNNLVTLENGKQLTVKRQGLYYIYAQVTFCSNREASSQAPFIASLCLKSPGRFERILLRAANTHSSAKPCGQQSIHLGGVFELQPGASVFVNVTDPSQVSHGTGFTSFGLLKL", "values": [{"measurement": "production of FOXN1+EPCAM+ cells", "setting": "[2]", "value": "did not enhance production"}]}
